Source: patent publication US9618524B2, “Method, composition, isolation and identification of a plaque particle and related biomarker” (Plaxgen Inc., priority 2012, dated 2017)

B1: Serum paraoxonase/arylesterase (protein)
chain: AKLIALTLLGMGLALFRNHQSSYQTRLNALREVQPVELPNCNLVKGIETGSEDLEILPNGLAFISSGLKYPGIKSFNPNSPGKILLMDLNEEDPTVLELGITGSKFDVSSFNPHGISTFTDEDNAMYLLVVNHPDAKSTVELFKFQEEEKSLLHLKTIRHKLLPNLNDIVAVGPEHFYGTNDHYFLDPYLQSWEMYLGLAWSYVVYYSPSEVRVVAEGFDFANGINISPDGKYVYIAELLAHKIHVYEKHANWTLTPLKSLDFNTLVDNISVDPETGDLWVGCHPNGMKIFFYDSENPPASEVLRIQNILTEEPKVTQVYAENGTVLQGSTVASVYKGKLLIGTVFHKALYCEL
B2: CD5 antigen-like (protein)
chain: SPSGVRLVGGLHRCEGRVEVEQKGQWGTVCDDGWDIKDVAVLCRELGCGAASGTPSGILYEPPAEKEQKVLIQSVSCTGTEDTLAQCEQEEVYDCSHDEDAGASCENPESSFSPVPEGVRLADGPGHCKGRVEVKHQNQWYTVCQTGWSLRAAKVVCRQLGCGRAVLTQKRCNKHAYGRKPIWLSQMSCSGREATLQDCPSGPWGKNTCNHDEDTWVECEDPFDLRLVGGDNLCSGRLEVLHKGVWGSVCDDNWGEKEDQVVCKQLGCGKSLSPSFRDRKCYGPGVGRIWLDNVRCSGEEQSLEQCQHRFWGFHDCTHQEDVAVICSG
B3: C4b-binding protein alpha chain (protein)
chain: NCGPPPTLSFAAPMDITLTETRFKTGTTLKYTCLPGYVRSHSTQTLTCNSDGEWVYNTFCIYKRCRHPGELRNGQVEIKTDLSFGSQIEFSCSEGFFLIGSTTSRCEVQDRGVGWSHPLPQCEIVKCKPPPDIRNGRHSGEENFYAYGFSVTYSCDPRFSLLGHASISCTVENETIGVWRPSPPTCEKITCRKPDVSHGEMVSGFGPIYNYKDTIVFKCQKGFVLRGSSVIHCDADSKWNPSPPACEPNSCINLPDIPHASWETYPRPTKEDVYVVGTVLRYRCHPGYKPTTDEPTTVICQKNLRWTPYQGCEALCCPEPKLNNGEITQHRKSRPANHCVYFYGDEISFSCHETSRFSAICQGDGTWSPRTPSCGDICNFPPKIAHGHYKQSSSYSFFKEEIIYECDKGYILVGQAKLSCSYSHWSAPAPQCKALCRKPELVNGRLSVDKDQYVEPENVTIQCDSGYGVVGPQSITCSGNRTWYPEVPKCEWETPEGCEQVLTGKRLMQCLPNPEDVKMALEVYKLSLEIEQLELQRDSARQSTLDKEL
B4: Angiotensinogen (protein)
chain: DRVYIHPFHLVIHNESTCEQLAKANAGKPKDPTFIPAPIQAKTSPVDEKALQDQLVLVAAKLDTEDKLRAAMVGMLANFLGFRIYGMHSELWGVVHGATVLSPTAVFGTLASLYLGALDHTADRLQAILGVPWKDKNCTSRLDAHKVLSALQAVQGLLVAQGRADSQAQLLLSTVVGVFTAPGLHLKQPFVQGLALYTPVVLPRSLDFTELDVAAEKIDRFMQAVTGWKTGCSLMGASVDSTLAFNTYVHFQGKMKGFSLLAEPQEFWVDNSTSVSVPMLSGMGTFQHWSDIQDNFSVTQVPFTESACLLLIQPHYASDLDKVEGLTFQQNSLNWMKKLSPRTIHLTMPQLVLQGSYDLQDLLAQAELPAILHTELNLQKLSNDRIRVGEVLNSIFFELEADEREPTESTQQLNKPEVLEVTLNRPFLFAVYDQSATALHFLGRVANPLSTA

Each molecule was assayed against T1, alpha-synuclein plaque particles (Homo sapiens, UniProt P37840) (assay: Mass spectroscopy proteomics, semi-quantitative binding affinity of serum proteins (plaqueproteome, Table 2)). Details: higher number = stronger affinity.
T1 construct: 140 amino acids polypeptide
Experimental: To prepare oligomers/aggregates of human alpha-synuclein (140 amino acids polypeptide), 1 mg of the recombinant alpha-synuclein protein was suspended in 1 mL of PBS and the sample was incubated at 37° C. for 2 hrs. After incubation, all the samples were centrifuged for 5 min. at 5000 rpm to remove precipitate, if any, and the supernatant containing oligomers/aggregates were used in vitro plaque particles formation assay. For detecting alpha-synuclein plaque particles Thioflavin S (Ex/Em=430 nm/550 nm) amyloid binding fluorescent dye (10 μg) was used.
Similarly, to isolate alpha-synuclein plaque particles, diluted plasma or serum samples obtained from AD subjects were used for incubation with alpha-synuclein plaque oligomers/aggregates. Each assay was performed in 1 mL reaction (800 μL of 50% plasma or serum) and 200 μL (30 μg) of the alpha-synuclein aggregates and the mixtures were incubated at 37° C. for 1 hr. To the mixture Thioflavin S dye (120 μg) was added and the sample was incubated for additional 30 min at 37° C. After the incubation, the mixture was directly used for sample acquisition using flow cytometer (FACS ARIA II, BD Biosciences, San Jose, Calif.). After initial detection of alpha-synuclein plaque particles, gates were drawn in the acquisition blot to separately sort and isolate fluorescently labeled alpha-synuclein particles.
(§1) For preparing trypsin digested peptide sequences, the isolated plaque particles were centrifuged at 10000 rpm for 5 min and the pellet containing plaque particles was resuspended in 100 μl PBS buffer. Stock solutions of digestion buffer (Ammonium Biocarbonate 50 mM), reducing buffer (DDT 100 mM) and alkylation buffer (lodoaceamide 100 mM) were prepared and stored at −20° C. for up to two months. For trypsin digestion, 100 μl of each plaque particles (2000 of Abeta-42, cholesterol, Tau and alpha-synuclein) were precipitated using cold acetone −80° C. by adding 4X's the volume. The samples were placed on dry ice for 10 min with intermittent vortex. Next, the samples were centrifuged at 4° C. at 10000 G for 10 min. Top layer of acetone was carefully removed from the tube with care not to disturb the plaque particles pellet. The samples were speed-vac for 10 min to ensure all acetone has been boiled away. The plaque particles pellet were reconstituted with 15 μl 8M Urea 100 mM Ammonium bicarbonate stock and 20 μl protease max solution. The protease max solution (Promega, Madison, Wis.) was prepared from stock by adding 60 μl 50 mM Ammonium bicarbonate and used for 3 solution digests (20 μl each). […] The tubes were incubated at 55° C. for 30 minutes. The tubes were then removed and brought to the room temperature followed by addition of 3.2 μl of 1M acrylamide and incubated at room temperature for 30 minutes. To the sample, 63 μL of 50 mM Ammonium bicarbonate was added for a final volume of 98 μl and 2 μl of trypsin (10 μg, Trypsin/Lys C Mix). After mixing the solution with pipet the samples were incubated at 37° C. overnight. After the overnight digest, the tryptic digest were quenched and acidified by adding 10 μl of 50% formic acid/water stock dilution. The samples were centrifuged at 10000 G for 2 minutes and purified using stage tip and used for MS/Mass analysis.
(§2) All MS/MS samples were analyzed using Sequest (Thermo Fisher Scientific, San Jose, Calif., USA; version 1.0). Sequest was set up to search the SUMS_uniprot_Human database (35847 entries) assuming the digestion enzyme strict trypsin. Sequest was searched with a fragment ion mass tolerance of 1.00 Da and a parent ion tolerance of 20 PPM. Propionamide of cysteine was specified in Sequest as a fixed modification. Oxidation of methionine and phospho of serine, threonine and tyrosine were specified in Sequest as variable modifications.
Scaffold (version Scaffold_4.2.1, Proteome Software Inc., Portland, Oreg.) was used to validate MS/MS based peptide and protein identifications.
B1 was tested, and the “Semi-quantitative analysis of proteins binding to different plaque particles: Synuclein” value was 7. B2 was tested, and the “Semi-quantitative analysis of proteins binding to different plaque particles: Synuclein” value was 6. B3 was tested, and the “Semi-quantitative analysis of proteins binding to different plaque particles: Synuclein” value was 7. For B4, the “Semi-quantitative analysis of proteins binding to different plaque particles: Synuclein” value was 7.

What follows are molecules tested on High Density cholesterol (Chl Large) plaque particles in the same assay as above. Details: higher number = stronger affinity.
Parameters: species or system human
Experimental: (§3) The goal was to isolate plaque particles synthesized in the bio-fluids in a relatively pure form to enable their subsequent use for identification of components that contribute to the plaque formation. In order to isolate cholesterol plaque particles, the plasma or serum samples obtained from atherosclerotic subjects were first centrifuged at 5,000 rpm for 5 min and the supernatants were transferred to new centrifuge tubes. Next, the supernatants were diluted in PBS to make 50% of the serum and used for incubation with cholesterol oligomers/aggregates. Each assay was performed in 1 mL reaction (800 μL of 50% plasma or serum) and 200 μL (30 μg) of the Cholesterol aggregates and the mixtures were incubated at 37° C. for 1 hr After the incubation, the mixture was directly used for sample acquisition using flow cytometer (FACS ARIA II, BD Biosciences, San Jose, Calif.). […] In order to isolate these fractions, three sets of gates were drawn in the acquisition blot to separately sort and isolate High density or high complex cholesterol particles, Low density or low complex cholesterol particles and both High and low density cholesterol particles together.
as §1, §2
(§4) Scaffold (version Scaffold_4.2.1, Proteome Software Inc., Portland, Oreg.) was used to validate MS/MS based peptide and protein identifications. […] Protein probabilities were assigned by the Protein Prophet algorithm (Nesvizhskii, Al et al 2003).
In the case of B1, the “Semi-quantitative analysis of proteins binding to different plaque particles: Chl Large” value is reported as 5. With B2 the “Semi-quantitative analysis of proteins binding to different plaque particles: Chl Large” value was 6. For B3, the “Semi-quantitative analysis of proteins binding to different plaque particles: Chl Large” value was 8. For B4, the “Semi-quantitative analysis of proteins binding to different plaque particles: Chl Large” value was 10.

What follows are molecules tested on Low density cholesterol (Chl small) plaque particles in the same assay as above. Details: higher number = stronger affinity.
Parameters: species or system human
Experimental: as §3, §1, §2, §4
B1 was tested, and the “Semi-quantitative analysis of proteins binding to different plaque particles: Chl small” value was 6. For B2, the “Semi-quantitative analysis of proteins binding to different plaque particles: Chl small” value was 7. In the case of B3, the “Semi-quantitative analysis of proteins binding to different plaque particles: Chl small” value is reported as 8. With B4 the “Semi-quantitative analysis of proteins binding to different plaque particles: Chl small” value was 9.

What follows are molecules tested against T2, Abeta-42 plaque particles (Homo sapiens, UniProt P05067) in the same assay as above. Details: higher number = stronger affinity.
T2 construct: Abeta 1-42
Experimental: Next to isolate serum derived Abeta-42 plaque particles, the plasma or serum samples obtained from AD subjects were first centrifuged at 5,000 rpm for 5 min and the supernatants were transferred to new centrifuge tubes. Next, the supernatants were diluted in PBS to make 50% of the serum and plasma samples and used for incubation with Abeta-42 plaque oligomers/aggregates. Each assay was performed in 1 mL reaction (800 μL of 50% plasma or serum) and 200 μL (30 μg) of the Abeta-42 aggregates and the mixtures were incubated at 37° C. for 1 hr. To the mixture Thioflavin S dye (120 μg) was added and the sample was incubated for additional 30 min at 37° C. After the incubation, the mixture was directly used for sample acquisition using flow cytometer (FACS ARIA II, BD Biosciences, San Jose, Calif.). After initial detection of Abeta-42 plaque particles in the acquisition blot, gates were drawn in fluorescent dot blot to separately sort and isolate fluorescently labeled Abeta-42 particles.
as §1, §2
Scaffold (version Scaffold_4.2.1, Proteome Software Inc., Portland, Oreg.) was used to validate MS/MS based peptide and protein identifications. […] Protein probabilities were assigned by the Protein Prophet algorithm (Nesvizhskii, Al et al 2003). […] Proteins sharing significant peptide evidence were grouped into clusters. Proteins were annotated with GO terms from NCBI (downloaded Jan. 17, 2014).
B1 was tested, and the “Semi-quantitative analysis of proteins binding to different plaque particles: Abeta-42” value was 2. In the case of B2, the “Semi-quantitative analysis of proteins binding to different plaque particles: Abeta-42” value is reported as 4. B3 was tested, and the “Semi-quantitative analysis of proteins binding to different plaque particles: Abeta-42” value was 0. For B4, the “Semi-quantitative analysis of proteins binding to different plaque particles: Abeta-42” value was 14.

What follows are molecules tested on Tau plaque particles in the same assay as above. Details: higher number = stronger affinity.
Parameters: species or system human
Experimental: For Tau-74 (74-102) (Exon 3/Insert 2 domain) preparation, 1 mg of Tau-74 was suspended in 1 mL of PBS and the sample was incubated at 37° C. for 2 hrs. Similarly for preparing Tau-275 (275-305) (Repeat 2 domain) 1 mg of the peptide was suspended in 1 mL of PBS and the sample was incubated at 37° C. for 2 hrs. After incubation, all the samples were centrifuged for 5 min. at 5000 rpm to remove precipitate, if any, and the supernatant containing oligomers/aggregates were used for in vitro amyloid plaque particles formation assay. For detecting Tau plaque particles, Thioflavin S (Ex/Em=430 nm/550 nm) amyloid binding fluorescent dye (10 μg) was used in the assay.
Next, to isolate Tau plaque particles, as performed for Abeta-42 and Abeta-28 plaque particles isolation, diluted serum samples were used for incubation separately with Tau-45, Tau-74 and Tau-275 oligomers/aggregates. Each assay was performed in 1 mL reaction (800 μL of 50% plasma or serum) and 200 μL (30 μg) of each Tau aggregates and the mixtures were incubated at 37° C. for 1 hr. To the each mixture Thioflavin S dye (120 μg) was added and the sample was incubated for additional 30 min at 37° C. After the incubation, each sample was directly used for sample acquisition using flow cytometer (FACS ARIA II, BD Biosciences, San Jose, Calif.). After initial detection of Tau plaque particles, gates were drawn in the acquisition blot to separately sort and isolate fluorescently labeled Tau plaque particles.
as §1, §2
For B1, the “Semi-quantitative analysis of proteins binding to different plaque particles: Tau” value was 3. In the case of B2, the “Semi-quantitative analysis of proteins binding to different plaque particles: Tau” value is reported as 3. B3 was tested, and the “Semi-quantitative analysis of proteins binding to different plaque particles: Tau” value was 1. In the case of B4, the “Semi-quantitative analysis of proteins binding to different plaque particles: Tau” value is reported as 15.
